US20220348617A1

How the values were obtained:
[1] = target: Notch2 EGF domains 6-13 (human) (UniProt Q04721); test: SPR; details: ligand
[2] = target: Notch1 EGF domains 6-13 (human) (UniProt P46531); test: SPR; details: ligand
[3] = target: Notch 3 EGF domains 5-12 (human) (UniProt Q9UM47); test: SPR; details: ligand
[4] = target: Notch2 EGF domains 6-13 (human) (UniProt Q04721); test: SPR; N-EGF3; details: ligand
[5] = target: Notch1 EGF domains 6-13 (human) (UniProt P46531); test: SPR; N-EGF3; details: ligand
[6] = target: Notch 3 EGF domains 5-12 (human) (UniProt Q9UM47); test: SPR; N-EGF3; details: ligand
[7] = target: Notch1 on the fluorescent Notch1 reporter cell line (CHO^N1); test: cell-based or functional assay

Chain of Notch2 EGF domains 6-13 (human) (Q04721 221-530): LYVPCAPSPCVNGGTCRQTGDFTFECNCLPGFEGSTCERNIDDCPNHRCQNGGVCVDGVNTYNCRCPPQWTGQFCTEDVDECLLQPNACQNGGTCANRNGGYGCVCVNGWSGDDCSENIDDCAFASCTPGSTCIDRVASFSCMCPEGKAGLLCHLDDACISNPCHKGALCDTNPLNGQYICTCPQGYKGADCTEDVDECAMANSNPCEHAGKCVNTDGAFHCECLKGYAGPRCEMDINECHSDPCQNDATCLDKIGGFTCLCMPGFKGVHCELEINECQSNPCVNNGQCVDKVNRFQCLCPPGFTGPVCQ
Chain of Notch1 EGF domains 6-13 (human) (P46531 218-526): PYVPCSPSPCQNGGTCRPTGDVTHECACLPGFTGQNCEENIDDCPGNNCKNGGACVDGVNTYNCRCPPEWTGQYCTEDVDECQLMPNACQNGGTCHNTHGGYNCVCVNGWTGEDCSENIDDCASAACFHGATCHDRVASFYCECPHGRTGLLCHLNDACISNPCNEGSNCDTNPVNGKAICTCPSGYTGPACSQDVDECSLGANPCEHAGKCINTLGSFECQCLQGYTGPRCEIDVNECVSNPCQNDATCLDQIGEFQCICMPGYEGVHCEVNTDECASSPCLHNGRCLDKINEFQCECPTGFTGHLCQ
Chain of Notch 3 EGF domains 5-12 (human) (Q9UM47 197-505): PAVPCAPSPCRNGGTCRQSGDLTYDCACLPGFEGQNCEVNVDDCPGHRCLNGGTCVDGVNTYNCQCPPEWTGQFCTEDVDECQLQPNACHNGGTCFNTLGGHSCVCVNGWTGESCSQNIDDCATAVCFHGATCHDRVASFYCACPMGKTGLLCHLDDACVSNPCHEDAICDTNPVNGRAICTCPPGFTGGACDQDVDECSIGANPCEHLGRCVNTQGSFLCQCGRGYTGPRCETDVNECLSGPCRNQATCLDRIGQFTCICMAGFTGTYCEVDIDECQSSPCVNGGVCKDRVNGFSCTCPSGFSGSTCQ

A Kd [1] of 750 nM, a Kd [2] of 450 nM and a Kd [3] of 470 nM were found for “E12 human DLL4 (from UniProt Q9NR61 27-322)” in this work. It also gave a Kd [4] of 244 nM, a Kd [5] of 103 nM and a Kd [6] of 122 nM.

A Kd [1] of 7.4 nM, a Kd [2] of 2 nM and a Kd [3] of 4.7 nM were found for “N3a.5_E12 human DLL4 (from UniProt Q9NR61 27-322)” in this work.

A Kd [1] of 15.3 nM, a Kd [2] of 4.2 nM and a Kd [3] of 7.2 nM were found for “N3a.8_E12 human DLL4 (from UniProt Q9NR61 27-322)” in this work.

A Notch1 activation (fluorescent Notch1 reporter cells, co-culture) [7] of 100% was found for “wild-type human DLL4 expressed on 293T cells (from UniProt Q9NR61 27-685) (ligand)” in this work.
